± gives the uncertainty stated by the source.

The series is described as follows: amyloid nucleation score (Sup35N fusion, yeast selection) (log enrichment); library NNK2; higher = more nucleation; inactive = no reads after selection. In outline: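 Random libraries were run with three technical output replicates. In each, psi-negative yeast expressing Sup35N fused to peptides of 20 random codons were induced 24 hours with 100 μM copper sulfate and grown 7 days at 30°C on medium lacking adenine and uracil, and input and output plasmid inserts were Illumina-sequenced. The nucleation score is the DiMSum log enrichment of output over input reads, centred on the mode score of non-aggregating sequences, and sequences under 100 input reads were excluded.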
Consider MDTVMRLYVCVCCRSFLRIG, for which the amyloid nucleation score is 1.62 ± 0.35.

Turning to GNYFPYFQVWSISRFLMSIS, the amyloid nucleation score result was “inactive”.

In turn, KKSSECHKSEG registered an amyloid nucleation score of 0.361 ± 0.45.

Consider EKRMNLVHYREYLPPFKRSN, for which the amyloid nucleation score is -0.403 ± 1.

The substance NRYTLDVVNFSNNYSISSNR displayed an amyloid nucleation score of 1.76 ± 0.12.

With PVYRACILIDM, the amyloid nucleation score is 3.18 ± 0.054.

Take TFTGLFKKLI: the amyloid nucleation score entry is “inactive”.

In the case of DFSIQWCTSSINYVLYFAI, the amyloid nucleation score is -1.89 ± 0.44.

EFVISKNSVPSPCRCW yielded an amyloid nucleation score of 0.382 ± 0.8.

Take CGMRTEMTLGCLILAAGTWT: the amyloid nucleation score worked out at 0.111 ± 0.5.

The substance GIRAVVL yielded an amyloid nucleation score of 0.374 ± 0.18.

LSWDYLSWTREI returned an amyloid nucleation score of -0.333 ± 0.24.

As to FPFKILSVKPH, the amyloid nucleation score came out at 3.45 ± 0.14.

The substance LYLVEARVTLYILGPWVVSR gave an amyloid nucleation score of 0.927 ± 0.45.

For the substance EVMEFSNDFSRIFFAFKGFV, the amyloid nucleation score was -0.665 ± 0.78.

In turn, WYEYCFCGVMLYRTGDCTRR displayed an amyloid nucleation score of 3.96 ± 0.086.

Consider MIVMLESLRRTTSQP, for which the amyloid nucleation score was 1.69 ± 0.21.

The substance RECDKEFRQSSSCIDRRLGM showed an amyloid nucleation score of -0.156 ± 0.8.

On to PFGKGKEHIKL, for which the amyloid nucleation score result was “inactive”.

For the substance GFALYFCSEFMVSVCRCKHT, the amyloid nucleation score worked out at 9.613 ± 0.065.

As for KDWRGMEDFMSVFFRSGLGS, the amyloid nucleation score result is “inactive”.

Take YFPPGDA: the amyloid nucleation score was -0.47 ± 0.39.

AFYMIRH returned an amyloid nucleation score of 3.66 ± 0.076.

As for KDPLIRDVLDNANQRLVNSV, the amyloid nucleation score entry was “inactive”.

For the substance IVFPDCSRYKKPHFCYEMVI, the amyloid nucleation score entry is “inactive”.

As to GMNFHRGLMLNGVCIFSLLW, the amyloid nucleation score is 0.491 ± 0.38.

In turn, CRGTQALSYSLS registered an amyloid nucleation score of -0.017 ± 0.76.

With TNKYFCTFGAHGARDLQMHV, the amyloid nucleation score entry was “inactive”.

For KSEVWSYLI, the amyloid nucleation score amounted to 4.51 ± 0.061.

On to YNILVK, for which the amyloid nucleation score is -0.622 ± 0.43.

Substance NCGRTNGLCPGYVCVSRLAW displayed an amyloid nucleation score of 1.09 ± 0.21.

IHLPKCISVSFRVSVGFLDM: the amyloid nucleation score result was “inactive”.

In the case of TILWEVVGAL, the amyloid nucleation score was found to be 0.091 ± 0.17.

On to DNQGSLDNSSLCTVYSGFSV, for which the amyloid nucleation score entry was “inactive”.

Regarding QCGSSMFRMPVLNWTA, the amyloid nucleation score amounted to 0.734 ± 0.81.

YTVFSTESPCWISQSKLRLA returned an amyloid nucleation score of -0.825 ± 0.78.

For QFDAWAYMDRTPHGDSYRAA, the amyloid nucleation score stood at 0.237 ± 0.65.

For LVLNKNCLKVI, the amyloid nucleation score was -0.426 ± 0.6.

SGMISRRHAYGAEVELVGSN returned an amyloid nucleation score of 1.17 ± 0.43.

For LVLRRWMSVRYFMGLTMKVR, the amyloid nucleation score entry was “inactive”.

In turn, FLMEVSLTLSFLERSNVLKG displayed an amyloid nucleation score of 3.8 ± 0.067.

As to NDWCRGENITALWDGYGSGL, the amyloid nucleation score amounted to 0.597 ± 0.46.

For the substance YSYWLSILRNVEL, the amyloid nucleation score was determined as 4.18 ± 0.079.

For the substance MYEGGSTLW, the amyloid nucleation score is -0.441 ± 0.45.

For the substance IVRWCLLIIIF, the amyloid nucleation score entry is “inactive”.

With CLCQIHSRSYPFIL, the amyloid nucleation score worked out at 0.148 ± 1.

SVFVCTDIFK: the amyloid nucleation score was 0.702 ± 0.52.

Substance ALPAFELGEFNNADHSHDDN showed an amyloid nucleation score of -0.464 ± 1.1.

GRCTRERW had an amyloid nucleation score of 0.123 ± 0.32.

VWLYKSLIINFDSKWRLS returned an amyloid nucleation score of 6.268 ± 0.034.

Turning to VVQQLIRKITVFSLRLVLNK, the amyloid nucleation score was 4.16 ± 0.073.

Consider FFLLVCVDGKTRRVD, for which the amyloid nucleation score worked out at 0.8 ± 0.15.

The substance SIPIIETGVWYVNNRVLMN displayed an amyloid nucleation score of -1.43 ± 0.54.

In the case of NDGYFVFDALFFHR, the amyloid nucleation score was -2.34 ± 0.75.

In turn, VNIILASMHVLLDGCS gave an amyloid nucleation score of -1.08 ± 0.64.

TMCDSIVIEYGPCIFDSSSS registered an amyloid nucleation score of 4.74 ± 0.056.

Turning to SVADGAHFCYYNLYFGGFVY, the amyloid nucleation score turned out to be 4.24 ± 0.081.

These data come from the supplement of paper PMC12042874.
